Data from patent publication US20120207676.

B1: NT-20.1 (peptide)
chain: KPRRPYIL
B2: DTPA(In)-NT-20.1 (peptide)
chain: KPRRPYIL
B3: DTPA(In)-NT-20.2 (peptide)
chain: KPRRPYIL
B4: NT-20.2 (peptide)
chain: KPRRPYIL
B5: DOTA(In)-LB119 (peptide)
chain: KPRRPYIL
B6: DOTA(Ga)-LB119 (peptide)
chain: KPRRPYIL
B7: DOTA(Y)-LB119 (peptide)
chain: KPRRPYIL

Target: T1, Neurotensin receptor NTS1 (HT29 cells/membranes) (human), P30989
Experiment: competition, HT29 membranes
Details: modification not given

T1 sequence (P30989 whole entry): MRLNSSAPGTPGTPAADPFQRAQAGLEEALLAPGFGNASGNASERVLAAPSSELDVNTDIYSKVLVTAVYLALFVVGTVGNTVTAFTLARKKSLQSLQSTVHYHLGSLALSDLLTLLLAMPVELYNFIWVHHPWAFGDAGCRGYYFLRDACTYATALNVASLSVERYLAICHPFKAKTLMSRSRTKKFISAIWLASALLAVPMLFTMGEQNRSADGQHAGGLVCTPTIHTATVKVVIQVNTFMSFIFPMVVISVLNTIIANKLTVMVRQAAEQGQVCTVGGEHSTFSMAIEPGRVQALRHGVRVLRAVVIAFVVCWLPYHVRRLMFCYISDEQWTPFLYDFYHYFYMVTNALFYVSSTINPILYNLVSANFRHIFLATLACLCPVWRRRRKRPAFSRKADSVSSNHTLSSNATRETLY

Binder | Ki [nM]
B1 | 0.072
B2 | 0.66
B3 | 1.55
B4 | 0.26

Target: T1, Neurotensin receptor NTS1 (HT29 …)
Experiment: competition, HT29 cells
Details: modification not given

Binder | IC50 [nM]
B5 | 14.1
B1 | 0.82
B2 | 6.73
B3 | 41.2
B6 | 7.5
B7 | 9.9
B4 | 2.46
